Substitutions are numbered along the chain they refer to. Names and notes keep the numbering of the source.
T1: EsCas13d, nuclease-dead (Eubacterium siraeum, UniProt B0MS50, R295A;H300A;R849A;H854A)
T1 sequence: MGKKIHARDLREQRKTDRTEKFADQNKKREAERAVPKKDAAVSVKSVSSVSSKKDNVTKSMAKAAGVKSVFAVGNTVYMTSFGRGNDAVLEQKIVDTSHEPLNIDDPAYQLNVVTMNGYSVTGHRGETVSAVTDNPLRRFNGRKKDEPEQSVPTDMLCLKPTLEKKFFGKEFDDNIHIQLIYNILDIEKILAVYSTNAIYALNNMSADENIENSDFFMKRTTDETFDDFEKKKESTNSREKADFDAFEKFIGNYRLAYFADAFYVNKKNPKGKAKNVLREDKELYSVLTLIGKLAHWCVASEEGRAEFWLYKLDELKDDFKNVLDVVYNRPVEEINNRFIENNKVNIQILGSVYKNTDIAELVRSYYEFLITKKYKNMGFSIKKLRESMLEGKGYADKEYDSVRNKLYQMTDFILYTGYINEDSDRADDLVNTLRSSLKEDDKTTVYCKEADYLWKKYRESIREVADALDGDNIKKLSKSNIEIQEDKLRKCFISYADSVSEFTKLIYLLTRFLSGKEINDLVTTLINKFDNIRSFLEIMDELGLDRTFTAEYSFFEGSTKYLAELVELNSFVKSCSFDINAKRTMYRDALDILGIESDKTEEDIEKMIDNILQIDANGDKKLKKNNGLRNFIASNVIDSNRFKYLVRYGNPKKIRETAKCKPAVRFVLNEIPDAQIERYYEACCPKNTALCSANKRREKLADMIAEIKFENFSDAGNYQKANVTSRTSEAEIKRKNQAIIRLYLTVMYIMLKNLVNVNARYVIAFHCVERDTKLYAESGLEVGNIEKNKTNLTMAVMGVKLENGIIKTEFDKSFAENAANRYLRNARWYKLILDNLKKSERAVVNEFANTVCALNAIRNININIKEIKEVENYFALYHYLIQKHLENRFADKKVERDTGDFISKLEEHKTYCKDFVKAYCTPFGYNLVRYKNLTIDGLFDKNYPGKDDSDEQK

B1: target 1 MT 5'PFS GUA 3'PFS UUU (mixed)
RNA 1: CACCCGUGCAAAAAUGCAGGGGUCUAAAACUGAGCGGAUAACCUCUCUAUGG
RNA 2: GGGAAUGGAUCCACAUCUACGAAUUCGUACCAUAGAGAGGUUAUCCGCUCAUUUAGAUCGGAAGAGCACACGU
B2: target 1 insA 3' of 8,insA 3' of 3 (mixed)
RNA 1: B1 RNA 1
RNA 2: GGGAAUGGAUCCACAUCUACGAAUUCGUACCAUAGAGAGGUUAUACCGCUACACCGAGAUCGGAAGAGCACACGU
B3: target 1 MT 5'PFS CCC 3'PFS UUG (mixed)
RNA 1: B1 RNA 1
RNA 2: B1 RNA 2 with G27C, U28C, A29C, U54G
B4: target 1 MT 5'PFS ACU 3'PFS AAU (mixed)
RNA 1: B1 RNA 1
RNA 2: B1 RNA 2 with G27A, U28C, A29U, U52A, U53A
B5: target 1 MT 5'PFS AGA 3'PFS CAA (mixed)
RNA 1: B1 RNA 1
RNA 2: B1 RNA 2 with G27A, U28G, U52C, U53A, U54A
B6: target 1 MT 5'PFS UAG 3'PFS UCC (mixed)
RNA 1: B1 RNA 1
RNA 2: B1 RNA 2 with G27U, U28A, A29G, U53C, U54C
B7: target 1 MT 5'PFS GUA 3'PFS CCU (mixed)
RNA 1: B1 RNA 1
RNA 2: B1 RNA 2 with U52C, U53C
B8: target 1 MT 5'PFS UAG 3'PFS UCG (mixed)
RNA 1: B1 RNA 1
RNA 2: B1 RNA 2 with G27U, U28A, A29G, U53C, U54G
B9: target 1 MT 5'PFS GCG 3'PFS AAC (mixed)
RNA 1: B1 RNA 1
RNA 2: B1 RNA 2 with U28C, A29G, U52A, U53A, U54C
B10: target 1 MT 5'PFS UUG 3'PFS AGA (mixed)
RNA 1: B1 RNA 1
RNA 2: B1 RNA 2 with G27U, A29G, U52A, U53G, U54A
B11: target 1 MT 5'PFS ACU 3'PFS AAA (mixed)
RNA 1: B1 RNA 1
RNA 2: B1 RNA 2 with G27A, U28C, A29U, U52A, U53A, U54A
B12: target 1 MT 5'PFS GCG 3'PFS AAU (mixed)
RNA 1: B1 RNA 1
RNA 2: B1 RNA 2 with U28C, A29G, U52A, U53A
B13: target 1 MT 5'PFS UCG 3'PFS CGA (mixed)
RNA 1: B1 RNA 1
RNA 2: B1 RNA 2 with G27U, U28C, A29G, U52C, U53G, U54A
B14: target 1 MT 5'PFS AGA 3'PFS ACU (mixed)
RNA 1: B1 RNA 1
RNA 2: B1 RNA 2 with G27A, U28G, U52A, U53C
B15: target 1 MT 5'PFS ACA 3'PFS AAG (mixed)
RNA 1: B1 RNA 1
RNA 2: B1 RNA 2 with G27A, U28C, U52A, U53A, U54G
B16: target 1 MT 5'PFS GUC 3'PFS CAG (mixed)
RNA 1: B1 RNA 1
RNA 2: B1 RNA 2 with A29C, U52C, U53A, U54G
B17: target 1 MT 5'PFS GUC 3'PFS CAU (mixed)
RNA 1: B1 RNA 1
RNA 2: B1 RNA 2 with A29C, U52C, U53A
B18: target 1 MT 5'PFS CCC 3'PFS UUC (mixed)
RNA 1: B1 RNA 1
RNA 2: B1 RNA 2 with G27C, U28C, A29C, U54C
B19: target 1 MT 5'PFS GGG 3'PFS GCA (mixed)
RNA 1: B1 RNA 1
RNA 2: B1 RNA 2 with U28G, A29G, U52G, U53C, U54A
B20: target 1 MT 5'PFS UUA 3'PFS UAU (mixed)
RNA 1: B1 RNA 1
RNA 2: B1 RNA 2 with G27U, U53A
B21: target 1 MT 5'PFS GUU 3'PFS ACC (mixed)
RNA 1: B1 RNA 1
RNA 2: B1 RNA 2 with A29U, U52A, U53C, U54C
B22: target 1 MT 5'PFS GCG 3'PFS AAA (mixed)
RNA 1: B1 RNA 1
RNA 2: B1 RNA 2 with U28C, A29G, U52A, U53A, U54A
B23: target 1 MT 5'PFS CCC 3'PFS UUU (mixed)
RNA 1: B1 RNA 1
RNA 2: B1 RNA 2 with G27C, U28C, A29C
B24: target 1 insU 3' of 21,insC 3' of 3 (mixed)
RNA 1: B1 RNA 1
RNA 2: GGGAAUGGAUCCACAUCUACGAAUUCGUACCUAUAGAGAGGUUAUCCGCUCCACCGAGAUCGGAAGAGCACACGU
B25: target 1 U11C,G17U (mixed)
RNA 1: B1 RNA 1
RNA 2: B1 RNA 2 with G35U, U41C, U52C, U53C, U54G
B26: target 1 MT 5'PFS UCA 3'PFS UCC (mixed)
RNA 1: B1 RNA 1
RNA 2: B1 RNA 2 with G27U, U28C, U53C, U54C
B27: target 1 MT 5'PFS GUA 3'PFS CCC (mixed)
RNA 1: B1 RNA 1
RNA 2: B1 RNA 2 with U52C, U53C, U54C
B28: target 1 MT 5'PFS AGA 3'PFS CAC (mixed)
RNA 1: B1 RNA 1
RNA 2: B1 RNA 2 with G27A, U28G, U52C, U53A, U54C
B29: target 1 MT 5'PFS UCA 3'PFS UCG (mixed)
RNA 1: B1 RNA 1
RNA 2: B1 RNA 2 with G27U, U28C, U53C, U54G
B30: target 1 MT 5'PFS CAA 3'PFS ACA (mixed)
RNA 1: B1 RNA 1
RNA 2: B1 RNA 2 with G27C, U28A, U52A, U53C, U54A
B31: target 1 MT 5'PFS GUA 3'PFS CCA (mixed)
RNA 1: B1 RNA 1
RNA 2: B1 RNA 2 with U52C, U53C, U54A
B32: target 1 MT 5'PFS GUU 3'PFS ACU (mixed)
RNA 1: B1 RNA 1
RNA 2: B1 RNA 2 with A29U, U52A, U53C
B33: target 1 MT 5'PFS UUG 3'PFS AGU (mixed)
RNA 1: B1 RNA 1
RNA 2: B1 RNA 2 with G27U, A29G, U52A, U53G
B34: target 1 MT 5'PFS CUG 3'PFS UUG (mixed)
RNA 1: B1 RNA 1
RNA 2: B1 RNA 2 with G27C, A29G, U54G
B35: target 1 MT 5'PFS ACG 3'PFS ACA (mixed)
RNA 1: B1 RNA 1
RNA 2: B1 RNA 2 with G27A, U28C, A29G, U52A, U53C, U54A
B36: target 1 MT 5'PFS GCG 3'PFS AAG (mixed)
RNA 1: B1 RNA 1
RNA 2: B1 RNA 2 with U28C, A29G, U52A, U53A, U54G
B37: target 1 MT 5'PFS UAG 3'PFS UCA (mixed)
RNA 1: B1 RNA 1
RNA 2: B1 RNA 2 with G27U, U28A, A29G, U53C, U54A
B38: target 1 MT 5'PFS ACA 3'PFS CGG (mixed)
RNA 1: B1 RNA 1
RNA 2: B1 RNA 2 with G27A, U28C, U52C, U53G, U54G
B39: target 1 MT 5'PFS ACG 3'PFS ACU (mixed)
RNA 1: B1 RNA 1
RNA 2: B1 RNA 2 with G27A, U28C, A29G, U52A, U53C
B40: target 1 MT 5'PFS CAA 3'PFS CAU (mixed)
RNA 1: B1 RNA 1
RNA 2: B1 RNA 2 with G27C, U28A, U52C, U53A

target: T1, EsCas13d, nuclease-dead; experiment: crRNA (strand 1, pre-loaded); Mg2+; 40 mM Tris-HCl pH 7.5, 150 mM NaCl, 6 mM MgCl2, 1 mM DTT, 0.1% Tween-20, 0.2 mg/ml BSA; 25 C; 10 min per concentration, then washed; conditions: tags: His6-TwinStrep-SUMO cleaved; N-terminal SNAP kept (SNAP-Surface 488); label: 3' end held by stalled T7 RNA polymerase

Row | Binder | Kd [nM]
1 | B1 | 8.21 ± 0.5
2 | B2 | 10.4 ± 0.4
3 | B3 | ~11.5
4 | B4 | ~60
5 | B5 | ~37
6 | B6 | 63.5 ± 20
7 | B7 | 7.3 ± 0.8
8 | B8 | 20.1 ± 3.45
9 | B9 | 32 ± 15
10 | B10 | 90 ± 40
11 | B11 | ~75.5
12 | B12 | 33.5 ± 9.5
13 | B13 | 51 ± 22.5
14 | B14 | ~32
15 | B15 | 18 ± 6
16 | B16 | ~31.5
17 | B17 | 24.5 ± 9
18 | B18 | ~15
19 | B19 | 36 ± 13
20 | B20 | 12.7 ± 1.35

Row | Binder | Kd [nM]
21 | B21 | 17.6 ± 3.3
22 | B22 | ~37
23 | B23 | 9.7 ± 4.5
24 | B24 | 22.7 ± 1.4
25 | B25 | 65 ± 27
26 | B26 | 12.5 ± 4.5
27 | B27 | 12.6 ± 2.1
28 | B28 | ~110
29 | B29 | 31.5 ± 14.5
30 | B30 | ~27
31 | B31 | 19.6 ± 2.4
32 | B32 | 15.8 ± 1.8
33 | B33 | 84 ± 33
34 | B34 | 4.45 ± 0.6
35 | B35 | 25 ± 8
36 | B36 | 25 ± 7
37 | B37 | 25 ± 5
38 | B38 | ~70
39 | B39 | 10.4 ± 3.5
40 | B40 | 32.5 ± 9.5
